Consider ten molecules from US20170029530A1 (AbbVie / Abbott, published 2017).

Several values for one entry are separate records, joined by “and”; a condition that tells them apart may be missing. Equal values may be shown once.

In one assay the target is T1, hDPEP3-ECD-His (human, UniProt Q9H4B8 36-463).
T1 construct: also called hDPEP3-His; monomeric hDPEP3-His antigen; not shown: histidine tag
T1 sequence: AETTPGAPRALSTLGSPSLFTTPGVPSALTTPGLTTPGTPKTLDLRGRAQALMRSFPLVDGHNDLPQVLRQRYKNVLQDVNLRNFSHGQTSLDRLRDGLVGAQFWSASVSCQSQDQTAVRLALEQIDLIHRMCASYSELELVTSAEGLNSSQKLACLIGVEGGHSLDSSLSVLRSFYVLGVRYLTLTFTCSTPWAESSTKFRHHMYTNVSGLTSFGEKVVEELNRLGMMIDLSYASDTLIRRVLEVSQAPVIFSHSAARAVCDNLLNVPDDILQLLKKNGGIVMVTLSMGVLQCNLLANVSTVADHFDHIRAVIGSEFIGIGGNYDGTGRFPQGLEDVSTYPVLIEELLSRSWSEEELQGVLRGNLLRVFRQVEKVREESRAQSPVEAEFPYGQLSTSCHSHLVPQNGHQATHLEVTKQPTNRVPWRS
Kind of assay: BLI ForteBio RED, 200 nM hDPEP3-His, estimated grade. The method in brief: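 Antibodies were captured on anti-mouse Fc biosensors to 0.3-1 units, then exposed to hDPEP3-His for a 4 min association and a 3 min dissociation at 1000 rpm. A control mouse IgG response was subtracted, and KD was estimated qualitatively from the curves. Sensors were regenerated with 10 mM glycine, pH 1.7.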

Assay [1] has as its target T2, rat DPEP3 ECD with histidine tag (rat, UniProt Q5U2X4 36-459, limits assumed).
T2 construct: also called rDPEP3-His; ratDPEP3-His; not shown: histidine tag
T2 sequence: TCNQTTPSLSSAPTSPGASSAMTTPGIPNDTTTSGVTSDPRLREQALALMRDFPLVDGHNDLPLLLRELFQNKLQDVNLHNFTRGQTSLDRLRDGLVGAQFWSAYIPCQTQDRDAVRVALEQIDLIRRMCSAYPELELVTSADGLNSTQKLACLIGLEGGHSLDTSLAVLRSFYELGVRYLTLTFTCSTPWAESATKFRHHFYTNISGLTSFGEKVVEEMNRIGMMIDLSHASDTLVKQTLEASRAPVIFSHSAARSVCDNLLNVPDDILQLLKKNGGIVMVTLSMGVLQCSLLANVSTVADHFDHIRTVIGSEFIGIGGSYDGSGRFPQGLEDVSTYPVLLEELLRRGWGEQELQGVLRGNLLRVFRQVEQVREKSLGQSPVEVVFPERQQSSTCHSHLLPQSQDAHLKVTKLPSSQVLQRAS
Briefly: ELISA, coated antigen.

Assay [2] concerns the target T3, hDPEP2 ECD with histidine tag (human, UniProt Q9H4A9 33-463).
T3 construct: also called hDPEP2-His; not shown: histidine tag
Briefly: ELISA, coated antigen.

A further assay addresses T4, cDPEP3 (Macaca fascicularis, UniProt Q4R7M2).
T4 construct: extracellular domain; also called cynomolgus DPEP3-His; cynomolgus DPEP3 ECD with histidine tag
T4 sequence (single chain, looked up): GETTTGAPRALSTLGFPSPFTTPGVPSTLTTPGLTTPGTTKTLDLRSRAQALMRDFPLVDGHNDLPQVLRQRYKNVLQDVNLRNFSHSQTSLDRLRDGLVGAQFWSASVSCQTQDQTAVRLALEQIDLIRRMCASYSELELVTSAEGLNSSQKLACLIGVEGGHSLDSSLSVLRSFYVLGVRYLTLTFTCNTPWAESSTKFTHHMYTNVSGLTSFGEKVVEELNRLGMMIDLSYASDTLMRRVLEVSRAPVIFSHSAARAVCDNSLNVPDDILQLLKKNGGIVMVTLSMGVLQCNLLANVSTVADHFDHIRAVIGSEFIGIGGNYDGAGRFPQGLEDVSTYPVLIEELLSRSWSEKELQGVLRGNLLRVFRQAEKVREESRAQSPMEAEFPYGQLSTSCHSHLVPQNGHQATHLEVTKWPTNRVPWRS
Briefly: ELISA, coated antigen. For orientation: In an ELISA, binding on a coated surface is turned into a signal by an enzyme label.

The next assay addresses T5, mDPEP3 (limits assumed).
T5 construct: also called mouse DPEP3-His; mouse DPEP3 ECD with histidine tag
T5 single chain: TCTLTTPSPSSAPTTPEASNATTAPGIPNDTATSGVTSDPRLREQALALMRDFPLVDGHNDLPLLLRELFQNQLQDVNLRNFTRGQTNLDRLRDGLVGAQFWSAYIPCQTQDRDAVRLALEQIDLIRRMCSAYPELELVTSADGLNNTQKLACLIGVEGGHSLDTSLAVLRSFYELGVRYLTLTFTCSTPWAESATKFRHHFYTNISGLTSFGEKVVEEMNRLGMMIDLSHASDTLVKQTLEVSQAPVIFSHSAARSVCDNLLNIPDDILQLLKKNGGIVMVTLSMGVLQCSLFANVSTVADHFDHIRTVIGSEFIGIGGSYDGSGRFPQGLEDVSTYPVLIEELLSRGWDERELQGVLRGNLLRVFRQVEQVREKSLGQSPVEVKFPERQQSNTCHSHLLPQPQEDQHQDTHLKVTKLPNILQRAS
Briefly: ELISA, coated antigen.

T3 sequence (Q9H4A9 33-463): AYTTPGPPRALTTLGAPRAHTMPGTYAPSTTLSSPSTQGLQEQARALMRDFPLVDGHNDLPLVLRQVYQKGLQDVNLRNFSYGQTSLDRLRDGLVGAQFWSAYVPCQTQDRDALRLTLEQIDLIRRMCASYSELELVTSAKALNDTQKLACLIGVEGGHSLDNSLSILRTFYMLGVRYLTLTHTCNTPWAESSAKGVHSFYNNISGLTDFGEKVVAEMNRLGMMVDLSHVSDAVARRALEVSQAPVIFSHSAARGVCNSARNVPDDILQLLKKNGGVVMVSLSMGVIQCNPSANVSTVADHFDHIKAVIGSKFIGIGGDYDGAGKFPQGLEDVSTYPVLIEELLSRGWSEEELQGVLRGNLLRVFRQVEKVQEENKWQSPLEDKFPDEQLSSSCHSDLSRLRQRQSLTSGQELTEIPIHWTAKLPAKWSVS

B1: SC34.90 (antibody, mouse IgG2a, V domains shown)
VH: QVQLQQSGAELMKPGASVKISCKATGYTFSYYWIEWVKQRPGHGLEWIGEILPGSDTTYYNEKFKGKATFTADTSSNTAYMQLSSLTSEDSAVYYCTIRRAAYYSNPEWFAYWGQGTLVTVSA
VL: QIVLTQSPAIMSASQGERVTMTCTASSSVSSSYLHWYQQKPGSSPKLWIYSTSNLASGVPVRFSGSGSGTSYSLTISSMEAEDAATYYCHQYHRSPYTFGGGTKLEIK
For B1, the Kd in the assay with hDPEP3-ECD-His was ≥ 5 nM and ≤ 10 nM. Also, the binding result (in assay [1]; in assay [2]; with cDPEP3; with mDPEP3) was “no binding (tested: 1 ug/mL)” in each case.

B2: SC34.33 (antibody, mouse IgG1, V domains shown)
VH: QVQLQQSGAELMKPGASVKISCKATGYTFSSYWIEWVKQRPGHGLEWIGEILPGSDKTYYNERFKDKATFTADTSSNTAYMQLSSLTSEDSAVYYCTRRAAAYYSNPEWFAYWGQGTLVTVSA
VL: QIVLTQSPAIMSASLGERVTMTCTASSSVNSFYLHWYQQKPGSSPKLWIHSTSNLASGVPGRFSGSGSGTSYSLTISSMEAEDAATYYCHQYHRSPYTFGGGTKLEIK
For B2, the Kd in the assay with hDPEP3-ECD-His was ≥ 5 nM and ≤ 10 nM. For the same molecule, the binding result (in assay [1]; in assay [2]; in the assay with cDPEP3; with mDPEP3) was “no binding (tested: 1 ug/mL)” throughout.

B3: SC34.28 mouse anti-DPEP3 antibody (antibody, V domains shown)
VH: QVQLQQSGAELMKPGASVKISCKATGYTFSSYWIEWVKQRPGHGLEWIGEILPGSGNTYYNERFKDKATFTADTSSNTAYMQLSSLTSEDSAVYYCARRAAAYYSNPEWFAYWGQGTLVTVSA
VL: QIVLTQSPAIMSASLGERVTMTCTASSSVNSFYLHWYQQKPGSSPKLWIHSTSNLASGVPGRFSGSGSGTSYSLTISSMEAEDAATYYCHQYHRSPYTFGGGTKLEIK
notes: Mouse hybridoma antibody, the source of hSC34.28
On to B3, for which the Kd with hDPEP3-ECD-His is ≥ 5 nM and ≤ 10 nM. Besides, the binding result (in assay [1]; in assay [2]; with cDPEP3; with mDPEP3) was “no binding (tested: 1 ug/mL)” throughout.

B4: SC34.40 (antibody, mouse IgG2a, V domains shown)
VH: EVQLQESGPGLAKPSQTLSLTCSVTGYSITSDYWNWIRKFPGNKLEYMGYITYSGSTYYNPSLKSRISITRDTSKNQYYLQLNSVTTEDTATYYCARARVYYYDGRYGRAMDYWGQGTSVTVSS
VL: DIQMTQSPASLSASVGETVTMTCRASENIYSNLAWYQQKQGKSPQVLVYAATNLADGVPSRFSGSESGTQFSLKINSLQPEDFGSYYCQHFYGTPWTFGGGTKLEIK
On to B4, for which, in the assay with hDPEP3-ECD-His, the dissociation constant (Kd) is ≥ 5 nM and ≤ 10 nM. In addition, the binding result (in assay [1]; in assay [2]; with cDPEP3; in the assay with mDPEP3) was “no binding (tested: 1 ug/mL)” each time.

B5: SC34.21 (antibody, mouse IgG1, V domains shown)
VH: EVQLQQSGPELVKPGTSMKISCKASGYSFTGYTMNWVKQSHGKNLEWIGLIYPYNDDTRYNRKFKGKATLTVDKSSNTAYMELLSLTSVDSAVCYCARGSYGSPFFDVWGAGTTVTVSS
VL: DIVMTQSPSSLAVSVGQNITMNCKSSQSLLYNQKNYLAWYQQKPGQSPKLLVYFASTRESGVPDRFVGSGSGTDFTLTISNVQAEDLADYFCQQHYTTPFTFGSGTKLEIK
Take B5: the dissociation constant (Kd) with hDPEP3-ECD-His is less than 5 nM. Further, the binding result (in assay [1]; in assay [2]; with cDPEP3; with mDPEP3) was “no binding (tested: 1 ug/mL)” throughout.

B6: SC34.18 (antibody, mouse IgG2b, V domains shown)
VH: QVSLKESGPGILQPSQTLSLTCSFSGFSLSTSGMGVGWIRQPSGKGLEWLANIWWDDSIYYNTALKSRLTISKDTSKNQVFLKIASVDTADTATYSCARIESYYGNRAWFAYWGQGTLVTVSA
VL: DIVMTQSQKFMSTSVGDRVSITCKASQNVRTAVGWYQQKPGQSPKTLIYLASNRHTGVSDRFTGSGSGTDFTLTISNVQSEDLADYFCLQHWNYPWTFGGGTKLEIK
Turning to B6, the Kd with hDPEP3-ECD-His is less than 5 nM. For the same molecule, the binding result (in assay [1]; in assay [2]; in the assay with cDPEP3; with mDPEP3) was “no binding (tested: 1 ug/mL)” in each case.

B7: SC34.26 (antibody, mouse IgG2b, V domains shown)
VH: QVQLQQPGAELVKPGASVTLSCKASGYTFTSYYIYWVKQRPGEGLEWIGEINPSNGGPNFNERFKNKATLTVDKSSSTAYMQLSSLTSEDSAVYYCTRGLLYYDYDRGFAYWGQGTLVTVSA
VL: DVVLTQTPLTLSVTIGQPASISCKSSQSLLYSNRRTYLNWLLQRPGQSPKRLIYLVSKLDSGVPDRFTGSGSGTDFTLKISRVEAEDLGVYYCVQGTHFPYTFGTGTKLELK
Regarding B7, in the assay with hDPEP3-ECD-His, the dissociation constant (Kd) is greater than 10 nM. For the same molecule, the binding result (in assay [1]; in assay [2]; with cDPEP3; with mDPEP3) was “no binding (tested: 1 ug/mL)” throughout.

B8: SC34.38 (antibody, mouse IgG2b, V domains shown)
VH: QVQLQQPGAELVKPGASVTLSCKASGYTFTSYYMYWVKQRPGEGLEWIGEINPSNGGANFNERFKNKATLTVDKSSSTAYMQLSSLTSEDSAVFYCTRGLLYYDYDRGFAYWGQGTLVTVSA
VL: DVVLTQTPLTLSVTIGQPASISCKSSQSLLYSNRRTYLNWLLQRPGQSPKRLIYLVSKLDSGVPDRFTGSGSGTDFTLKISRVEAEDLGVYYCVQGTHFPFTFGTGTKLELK
With B8, the Kd with hDPEP3-ECD-His was less than 5 nM. Further, the binding result (in assay [1]; in assay [2]; with cDPEP3; with mDPEP3) was “no binding (tested: 1 ug/mL)” throughout.

B9: SC34.53 mouse anti-hDPEP3 antibody (antibody, V domains shown)
VH: QVQLQQPGAELVKPGASVTLSCKASGYTFTSYYIYWVKQRPGEGLEWIGEIDPSNGGPNFNDRFKNKATLTVDKSSSTAYMQLSSLTSEDSAVYYCTRGLLYYDYDRGFAYWGQGTLVTVSA
VL: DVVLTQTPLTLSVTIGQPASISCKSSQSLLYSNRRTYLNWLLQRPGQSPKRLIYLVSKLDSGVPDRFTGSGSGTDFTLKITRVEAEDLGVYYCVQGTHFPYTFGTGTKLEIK
notes: Mouse hybridoma antibody
Take B9: the Kd with hDPEP3-ECD-His was ≥ 5 nM and ≤ 10 nM. Also, the binding result (in assay [1]; in assay [2]; with cDPEP3; with mDPEP3) was “no binding (tested: 1 ug/mL)” each time.

B10: SC34.41 (antibody, mouse IgG1, V domains shown)
VH: EVKLVESGGGLVKPGGSLKLSCAASGFTFTSYTMSWVRQTPAKRLEWVATISTGGGNTYYPDIVKGRFTISRDNARSTLYLQMSSLRSEDSAMYYCARRFYDGSYNYWYFDVWGAGTTVTVSS
VL: DIQMIQSPSSMFASLGDRVSLSCRASQGIRGNLDWYQQKPGGTIKLLIYSTSNLNSGVPSRFSGSGSGSDYSLTISSLESEDFADYYCLQRDAYPYTFGGGTKLEIK
For the molecule B10, in the assay with hDPEP3-ECD-His, the Kd was greater than 10 nM. The binding result (in assay [1]; in assay [2]; in the assay with cDPEP3; with mDPEP3) was “no binding (tested: 1 ug/mL)” in each case.

The term Kd denotes a measure of binding affinity in units of concentration.
